The record followed here is patent publication US20180009908.

Data set [1] addresses matuzumab HC_20.8.34_B + matuzumab LC (IgG4 HC backbone). The data set is described as follows: LCMS, IgG4 BsAb co-expression; HCA/HCB heterodimer carrying two LC1.
Data set [2] can be described thus: LCMS, IgG4 BsAb co-expression; HCA homodimer species.
In data set [3] the target is matuzumab HC_20.8.34_B + matuzumab LC (IgG4 HC backbone). The data set is described as follows: LCMS, IgG4 BsAb co-expression in HEK293F.
For data set [4] the target is unchanged. The data set is described as follows: LCMS, IgG4 BsAb co-expression; HCA/HCB heterodimer carrying two LC2.
For data set [5], the target named is T1, HA-tagged human IgG1 Fc portion with CH3 mutations E356G, E357D, S364Q, Y407A.
T1 chain: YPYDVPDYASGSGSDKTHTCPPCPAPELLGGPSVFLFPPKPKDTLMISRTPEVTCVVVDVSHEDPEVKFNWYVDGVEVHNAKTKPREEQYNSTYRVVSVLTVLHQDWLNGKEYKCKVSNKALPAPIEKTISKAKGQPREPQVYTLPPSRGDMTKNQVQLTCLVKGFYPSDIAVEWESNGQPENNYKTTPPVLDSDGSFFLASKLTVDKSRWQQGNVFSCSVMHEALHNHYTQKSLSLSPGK
Put plainly: UPLC SEC of protein G-purified one-arm antibody co-expressed in HEK293F.

Data set [6] addresses T2, HA-tagged human IgG1 Fc portion with CH3 mutations E357D, S364R, Y407A.
T2 chain: T1 chain with G150E, Q158R
The description is as above.

The target in data set [7] is T3, HA-tagged human IgG1 Fc portion with CH3 mutations E357D, S364Q, Y407A.
T3 chain: T1 chain with G150E
Described as above.

Data set [8] has as its target BHA10 HC_20.8_B + BHA10 LC (IgG1). The data set is described as follows: LCMS, IgG1 BsAb co-expression; HCA/HCB heterodimer carrying two LC2.
Data set [9] concerns the target matuzumab HC_20.8_B + matuzumab LC (IgG1). The data set is described as above.
In data set [10] the target is BHA10 HC_20.8_B + BHA10 LC (IgG1). Put plainly: LCMS, IgG1 BsAb co-expression in HEK293F.
Data set [11] concerns the target matuzumab HC_20.8_B + matuzumab LC (IgG1). The data set is described as follows: LCMS, IgG1 BsAb co-expression in HEK293F.
Data set [12] addresses BHA10 HC_20.8_B + BHA10 LC (IgG1). The data set is described as follows: LCMS, IgG1 BsAb co-expression; HCA/HCB heterodimer carrying two LC1.
In data set [13] the target is matuzumab HC_20.8_B + matuzumab LC (IgG1). Described as above.
A short description of data set [14]: LCMS, IgG1 BsAb co-expression; HCA homodimer species.
In data set [15] the target is BHA10 HC_20.8.34_B + BHA10 LC (IgG4 HC backbone). The data set is described as follows: LCMS, IgG4 BsAb co-expression; HCA/HCB heterodimer carrying two LC1.
The target is the same in data set [16]. Put plainly: LCMS, IgG4 BsAb co-expression in HEK293F.
The target is the same in data set [17]. Put plainly: LCMS, IgG4 BsAb co-expression; HCA/HCB heterodimer carrying two LC2.
The target of data set [18] is matuzumab HC_7.8.60_B + matuzumab LC (IgG4 HC backbone). The data set is described as follows: LCMS, IgG4 BsAb co-expression; HCA/HCB heterodimer carrying two LC1.
Data set [19] concerns the target BHA10 HC_7.8.60_B + BHA10 LC (IgG4 HC backbone). The data set is described as above.
For data set [20], the target named is matuzumab HC_7.8.60_B + matuzumab LC (IgG4 HC backbone). Put plainly: LCMS, IgG4 BsAb co-expression in HEK293F.
The target of data set [21] is BHA10 HC_7.8.60_B + BHA10 LC (IgG4 HC backbone). The data set is described as follows: LCMS, IgG4 BsAb co-expression in HEK293F.
Data set [22] deals with matuzumab HC_7.8.60_B + matuzumab LC (IgG4 HC backbone). Put plainly: LCMS, IgG4 BsAb co-expression; HCA/HCB heterodimer carrying two LC2.
Data set [23] deals with BHA10 HC_7.8.60_B + BHA10 LC (IgG4 HC backbone). The data set is described as above.
Where [24] appears, read: Pertuzumab × BHA10 IgG BsAbs (with select CH3 Designs).
Where [25] appears, read: Pertuzumab × Matuzumab IgG BsAbs (with select CH3 Designs).

Positions count from the first letter of the chain named. Names and notes keep the numbering of the source.

B1: MetMAb HC_20.8.34_A + MetMAb LC (IgG4 HC backbone) (protein)
chain 1: EVQLVESGGGLVQPGGSLRLSCAASGYTFTSYWLHWVRKAPGKGLEWVGMIDPSNSDTRFNPEFKDRFTISADTSKNTAYLQMNSLRAEDTAVYYCATYRSYVTPLDYWGQGTLVTVSSASTKGPSVFPLAPCSRSTSESTAALGCLVKDYFPEPVTVSWNSGALTSGVATGPAVLQSSGLYSLSSVVTVPSSSLGTKTYTCNVDHKPSNTKVDKRVESKYGPPCPPCPAPEAAGGPSVFLFPPKPKDTLMISRTPEVTCVVVDVSQEDPEVQFNWYVDGVEVHNAKTKPREEQFQSTYRVVSVLTVLHQDWLNGKEYKCKVSNKGLPSSIEKTISKAKGQPREPQVSTLPPSQEEMTKNQVSLMCLVYGFYPSDIAVEWESNGQPENNYKTTPPVLDSDGSFFLYSVLTVDKSRWQEGNVFSCSVMHEALHNHYTQKSLSLSLG
chain 2: RIQMTQSPSSLSASVGDRVTITCKSSQSLLYTSSQKNYLAWYQDKPGKAPKLLIYWASTRESGVPSRFSGSGSGTDFTLTISSLQPEDFATYYCQQYYAYPWTFGQGTKVEIKGQPKAAPSVTLFPPSSEELQANKATLVCYISDFYPGAVTVAWKADSSPVKAGVETTTPSKQSNNKYAAWSYLSLTPEQWKSHRSYSCQVTHEGSTVEKTVAPTEC
As to B1, the % AB (2x LC1) (incorrect assembly) in [1] came out at 0%. The % AA Homodimer (incorrect assembly) in data set [2] was 0%. For the same protein, the % AB (LC1/LC2) (correct IgG BsAb assembly) in [3] was 100%. The % AB (2x LC2) (incorrect assembly) in data set [4] was 0%.

B2: anti-c-Met 5D5 VH-human IgG1 HC with CH3 mutations Y349S, K370Y, T366V, K409V, with 5D5 light chain (protein)
chain 1: EVQLVESGGGLVQPGGSLRLSCAASGYTFTSYWLHWVRQAPGKGLEWVGMIDPSNSDTRFNPNFKDRFTISADTSKNTAYLQMNSLRAEDTAVYYCATYRSYVTPLDYWGQGTLVTVSSASTKGPSVFPLAPSSKSTSGGTAALGCLVKDYFPEPVTVSWNSGALTSGVHTFPAVLQSSGLYSLSSVVTVPSSSLGTQTYICNVNHKPSNTKVDKRVEPKSCDKTHTCPPCPAPELLGGPSVFLFPPKPKDTLMISRTPEVTCVVVDVSHEDPEVKFNWYVDGVEVHNAKTKPREEQYNSTYRVVSVLTVLHQDWLNGKEYKCKVSNKALPAPIEKTISKAKGQPREPQVSTLPPSREEMTKNQVSLVCLVYGFYPSDIAVEWESNGQPENNYKTTPPVLDSDGSFFLYSVLTVDKSRWQQGNVFSCSVMHEALHNHYTQKSLSLSPGK
chain 2: DIQMTQSPSSLSASVGDRVTITCKSSQSLLYTSSQKNYLAWYQQKPGKAPKLLIYWASTRESGVPSRFSGSGSGTDFTLTISSLQPEDFATYYCQQYYAYPWTFGQGTKVEIKRTVAAPSVFIFPPSDEQLKSGTASVVCLLNNFYPREAKVQWKVDNALQSGNSQESVTEQDSKDSTYSLSSTLTLSKADYEKHKVYACEVTHQGLSSPVTKSFNRGEC
On to B2, for which the % heterodimer (UPLC) in data set [5] turned out to be 93%; in [6], 86.5%; in [7], 84.9%.

B3: anti-c-Met 5D5 VH-human IgG1 HC with CH3 mutations Y349S, K370Y, T366M, K409V, with 5D5 light chain (protein)
chain 1: B2 chain 1 with V368M
chain 2: B2 chain 2
Turning to B3, the % heterodimer (UPLC) in data set [5] turned out to be 83.8%; in [6], 83.5%; in data set [7], 86%.

B4: pertuzumab HC_20.8_A + pertuzumab LC (IgG1) (protein)
chain 1: EVQLVESGGGLVQPGGSLRLSCAASGFTFTDYTMDWVRKAPGKGLEWVADVNPNSGGSIYNQEFKGRFTLSVDRSKNTLYLQMNSLRAEDTAVYYCARNLGPSFYFDYWGQGTLVTVSSASTKGPSVFPLAPSSKSTSGGTAALGCLVKDYFPEPVTVSWNSGALTSGVATGPAVLQSSGLYSLSSVVTVPSSSLGTQTYICNVNHKPSNTKVDKKVEPKSCDKTHTCPPCPAPELLGGPSVFLFPPKPKDTLMISRTPEVTCVVVDVSHEDPEVKFNWYVDGVEVHNAKTKPREEQYQSTYRVVSVLTVLHQDWLNGKEYKCKVSNKALPAPIEKTISKAKGQPREPQVSTLPPSREEMTKNQVSLVCLVYGFYPSDIAVEWESNGQPENNYKTTPPVLDSDGSFFLYSVLTVDKSRWQQGNVFSCSVMHEALHNHYTQKSLSLSPGK
chain 2: RIQMTQSPSSLSASVGDRVTITCKASQDVSIGVAWYQDKPGKAPKLLIYSASYRYTGVPSRFSGSGSGTDFTLTISSLQPEDFATYYCQQYYIYPYTFGQGTKVEIKGQPKAAPSVTLFPPSSEELQANKATLVCYISDFYPGAVTVAWKADSSPVKAGVETTTPSKQSNNKYAAWSYLSLTPEQWKSHRSYSCQVTHEGSTVEKTVAPTEC
With B4, the % AB (2x LC2) (incorrect assembly) in [8] and in data set [9] was 0% throughout. Besides, the % AB (LC1/LC2) (correct IgG BsAb assembly) in [10] was determined as 96.5%; in data set [11], 96%. Moreover, the % AB (2x LC1) (incorrect assembly) in [12] and in data set [13] was 0% in each case. For the same protein, the % AA Homodimer (incorrect assembly) in [14] (pertuzumab × BHA10 bispecific) was 3.5%; in data set [14] (pertuzumab × matuzumab bispecific), 2.1%.

B5: pertuzumab HC_20.8.34_A + pertuzumab LC (IgG4 HC backbone) (protein)
chain 1: EVQLVESGGGLVQPGGSLRLSCAASGFTFTDYTMDWVRKAPGKGLEWVADVNPNSGGSIYNQEFKGRFTLSVDRSKNTLYLQMNSLRAEDTAVYYCARNLGPSFYFDYWGQGTLVTVSSASTKGPSVFPLAPCSRSTSESTAALGCLVKDYFPEPVTVSWNSGALTSGVATGPAVLQSSGLYSLSSVVTVPSSSLGTKTYTCNVDHKPSNTKVDKRVESKYGPPCPPCPAPEAAGGPSVFLFPPKPKDTLMISRTPEVTCVVVDVSQEDPEVQFNWYVDGVEVHNAKTKPREEQFQSTYRVVSVLTVLHQDWLNGKEYKCKVSNKGLPSSIEKTISKAKGQPREPQVSTLPPSQEEMTKNQVSLMCLVYGFYPSDIAVEWESNGQPENNYKTTPPVLDSDGSFFLYSVLTVDKSRWQEGNVFSCSVMHEALHNHYTQKSLSLSLG
chain 2: B4 chain 2
Consider B5, for which the % AB (2x LC1) (incorrect assembly) in [1] and in data set [15] was 0% each time. The % AA Homodimer (incorrect assembly) in data set [2] (setting [24]) was found to be 5.2%; in [2] (setting [25]), 2.3%. Besides, the % AB (LC1/LC2) (correct IgG BsAb assembly) in [3] is 94.1%; in [16], 94.8%. Also, the % AB (2x LC2) (incorrect assembly) in data set [4] and in data set [17] was 0% in each case.

B6: pertuzumab HC_7.8.60_A + pertuzumab LC (IgG4 HC backbone) (protein)
chain 1: B5 chain 1 with S348Y, K359D, M365T, Y369K, D398M, Y406A, V408R
chain 2: B4 chain 2
For the protein B6, the % AB (2x LC1) (incorrect assembly) in data set [18] and in data set [19] was 0% in each case. Further, the % AA Homodimer (incorrect assembly) turned out to be 0% in data set [2] (setting [24]) and 9.1% in data set [2] (setting [25]). For the same protein, the % AB (LC1/LC2) (correct IgG BsAb assembly) in data set [20] was 90.9%; in data set [21] it was 95.8%. Besides, the % AB (2x LC2) (incorrect assembly) in data set [22] and in [23] was 0% in each case.
